B1: GLP (recombinant, full-length, untagged) (natural protein)
chain: MRSVEQQLSIVTEAAVAPEPVRIAIAEALGLMCAEEVQASRALPGFAQAAIDGYAVRAVDVGGEKSLSQQLPVAPPEKSLPVVGEVAAGSQQPLRLQPKQAVMVHTGAPLPMLADAVLPMAWSDRGRKRVTAQRPVRSGEFVRKEGDDIQPGDIAVSAGAVLGPAQIGLLAAVGRSKVLVYPRPRMSVISVGAELVDIDRQPGLGQVYDVNSYSLAAAGREAGADVYRYGIAAGEPRRIKEIIESQMLRSEIIVITGAVGGAGSAGVRQVLNELGDIDTERVAMHPGSVQGFGLLGENKIPCFLLPSNPVASLVIFETFVRPVVRMSLGKSNAARRVVRARALNHVVSVAGRKGFIRSRLMRDAETQDYLVEALGGATGAPSHLLAGLSEANGMIRIPEDVTEIRPGDVVDVIFLAQGR

What was measured:
[1] = target: Biotinylated His-GLPR (C. glutamicum ATCC 13032); experiment: BLI
crystal structure = target: the molecule itself; experiment: crystal structure
His-SUMO-FtsZ = target: T1, His-SUMO-FtsZ (C. glutamicum, UniProt P94337 1-442); experiment: BLI
T1 sequence: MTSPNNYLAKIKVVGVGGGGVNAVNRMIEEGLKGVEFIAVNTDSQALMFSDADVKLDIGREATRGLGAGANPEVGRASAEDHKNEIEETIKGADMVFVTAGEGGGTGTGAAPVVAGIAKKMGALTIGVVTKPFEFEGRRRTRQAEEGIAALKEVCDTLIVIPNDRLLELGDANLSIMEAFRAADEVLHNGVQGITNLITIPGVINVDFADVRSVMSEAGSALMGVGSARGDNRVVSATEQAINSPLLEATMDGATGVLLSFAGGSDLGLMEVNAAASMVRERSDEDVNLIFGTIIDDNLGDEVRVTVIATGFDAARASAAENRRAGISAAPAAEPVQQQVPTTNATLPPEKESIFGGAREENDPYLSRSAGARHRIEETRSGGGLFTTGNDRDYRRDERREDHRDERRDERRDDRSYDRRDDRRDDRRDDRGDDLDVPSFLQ

[2] = target: B1; experiment: BLI

Wag31 (recombinant, full-length) (natural protein)
Kd [1]: 43.4 µM

Wag31_(1–61) (N-terminal DivIVA domain of Wag31) (domain or fragment)
Kd [1]: 14.9 µM

B1
stoichiometry N (crystal structure): 2 | Kd (His-SUMO-FtsZ): 4.7 µM

B2: GLPR, C-terminal His-tagged (receptor)
chain: MLHVSGILVIGLIVVVWLVVLAPLLLRGQKPIAKAGEAFDDTRVISEGGSNIPSPRRPGLSSAQLDDEEDTDDVDDDYEIVDSPSIFRPRKEEPVEEDLDTDVELEEDIEVSLETDDYVEPAPVVEVSQEWNVEDHYELDDSYDTPLDHLHPAARARAYEDFQEHQPEQQPEVEEFDADDELTEEDVAFAQRRRGRGYYDPEADREFAASQYVRRQRTLLGLAATVVISVILGFVFGGWVWGLPAVALAATALYLMALRSQVREENALRARRIRRLRRSRMGVRNSEDLPSRLRRPGAVVLELDDESPDFEGLPTVAMPEEPYYEEPRRNIRHLGQRRVS
Kd [2]: 0.0055 µM
